Measured values as given in article PMC3638900.

Target: HB36.4 I58E displayed on the yeast surface
Experiment: flow cytometry on cells

A/Vietnam/1203/2004 (H5N1) hemagglutinin, biotinylated (natural protein)
net change in specificity (H1 over H5) against HB36.4: > 30 fold
